± gives the uncertainty stated by the source.
B1: Bromodomain adjacent to zinc finger domain protein 2B, residues 1927 to 1982; numbered along this chain, Q9UIF8 (parent)
chain: KSIMKVYCQICRKGDNEELLLLCDGCDKGCHTYCHRPKITTIPDGDWFCPACIAKA

Variants of: B1
Test: abundance fitness (aPCA) (normalised: wild type 0, dead -1); higher = more abundant; growth selection in yeast, the domain comes from the species named
Settings: Homo sapiens
Variant KSIMKVYCQICRKGDNEELLLLCDGCDKGCHTYCHRPKITTIPDGDWFMPACIAKA has an abundance fitness of -0.859 ± 0.17.
KSIMKVYCQICRKGDNEELLLLCDGCDKGCHTYCHRPKITTIPDGDWFQPACIAKA showed an abundance fitness of -0.959 ± 0.16.
For KSIMKVYCQICRKGDNEELLLLCDGCDKGCHTYCHRPKITTIPDGDWFPPACIAKA, the abundance fitness was -0.993 ± 0.16.
In the case of KSIMKVYCQICRKGDNEELLLLCDGCDKGCHTYCHRPKITTIPDGDWFRPACIAKA, the abundance fitness is reported as -0.822 ± 0.073.
With KSIMKVYCQICRKGDNEELLLLCDGCDKGCHTYCHRPKITTIPDGDWFFPACIAKA the abundance fitness was -1.04 ± 0.28.
Variant KSIMKVYCQICRKGDNEELLLLCDGCDKGCHTYCHRPKITTIPDGDWFIPACIAKA has an abundance fitness of -0.859 ± 0.22.
KSIMKVYCQICRKGDNEELLLLCDGCDKGCHTYCHRPKITTIPDGDWFAPACIAKA gave an abundance fitness of -0.82 ± 0.16.
Work on KSIMKVYCQICRKGDNEELLLLCDGCDKGCHTYCHRPKITTIPDGDWFWPACIAKA yielded an abundance fitness of -0.932 ± 0.1.
KSIMKVYCQICRKGDNEELLLLCDGCDKGCHTYCHRPKITTIPDGDWFVPACIAKA gave an abundance fitness of -1.03 ± 0.13.
Variant KSIMKVYCQICRKGDNEELLLLCDGCDKGCHTYCHRPKITTIPDGDWFHPACIAKA has an abundance fitness of -0.333 ± 0.21.
KSIMKVYCQICRKGDNEELLLLCDGCDKGCHTYCHRPKITTIPDGDWFNPACIAKA gave an abundance fitness of -0.816 ± 0.24.
For KSIMKVYCQICRKGDNEELLLLCDGCDKGCHTYCHRPKITTIPDGDWFKPACIAKA, the abundance fitness was -0.83 ± 0.14.
With KSIMKVYCQICRKGDNEELLLLCDGCDKGCHTYCHRPKITTIPDGDWFGPACIAKA the abundance fitness was -0.788 ± 0.066.
KSIMKVYCQICRKGDNEELLLLCDGCDKGCHTYCHRPKITTIPDGDWFYPACIAKA gave an abundance fitness of -1.11 ± 0.14.
KSIMKVYCQICRKGDNEELLLLCDGCDKGCHTYCHRPKITTIPDGDWFSPACIAKA gave an abundance fitness of -0.838 ± 0.092.
For KSIMKVYCQICRKGDNEELLLLCDGCDKGCHTYCHRPKITTIPDGDWFLPACIAKA, the abundance fitness was -1.04 ± 0.13.
For KSIMKVYCQICRKGDNEELLLLCDGCDKGCHTYCHRPKITTIPDGDWFDPACIAKA, the abundance fitness was -0.244 ± 0.16.
Work on KSIMKVYCQICRKGDNEELLLLCDGCDKGCHTYCHRPKITTIPDGDYFCPACIAKA yielded an abundance fitness of -0.165 ± 0.19.
In the case of KSIMKVYCQICRKGDNEELLLLCDGCDKGCHTYCHRPKITTIPDGDVFCPACIAKA, the abundance fitness is reported as -0.338 ± 0.091.
In the case of KSIMKVYCQICRKGDNEELLLLCDGCDKGCHTYCHRPKITTIPDGDWFCPACMAKA, the abundance fitness is reported as 0.021 ± 0.11.
With KSIMKVYCQICRKGDNEELLLLCDGCDKGCHTYCHRPKITTIPDGDWFCPACRAKA the abundance fitness was -0.087 ± 0.078.
With KSIMKVYCQICRKGDNEELLLLCDGCDKGCHTYCHRPKITTIPDGDWFCPACFAKA the abundance fitness was -0.072 ± 0.24.
For KSIMKVYCQICRKGDNEELLLLCDGCDKGCHTYCHRPKITTIPDGDWFCPACDAKA, the abundance fitness was -0.006 ± 0.12.
Variant KSIMKVYCQICRKGDNEELLLLCDGCDKGCHTYCHRPKITTIPDGDWFCPACPAKA has an abundance fitness of 0.118 ± 0.15.
With KSIMKVYCQICRKGDNEELLLLCDGCDKGCHTYCHRPKITTIPDGDWFCPACCAKA the abundance fitness was -0.051 ± 0.12.
KSIMKVYCQICRKGDNEELLLLCDGCDKGCHTYCHRPKITTIPDGDWFCPACAAKA gave an abundance fitness of -0.037 ± 0.074.
For KSIMKVYCQICRKGDNEELLLLCDGCDKGCHTYCHRPKITTIPDGDWFCPACGAKA, the abundance fitness was -0.03 ± 0.065.
KSIMKVYCQICRKGDNEELLLLCDGCDKGCHTYCHRPKITTIPDGDWFCPACSAKA gave an abundance fitness of -0.033 ± 0.092.
Work on KSIMKVYCQICRKGDNEELLLLCDGCDKGCHTYCHRPKITTIPDGDWFCPACEAKA yielded an abundance fitness of 0.016 ± 0.084.
KSIMKVYCQICRKGDNEELLLLCDGCDKGCHTYCHRPKITTIPDGDWFCPACTAKA gave an abundance fitness of -0.225 ± 0.1.
With KSIMKVYCQICRKGDNEELLLLCDGCDKGCHTYCHRPKITTIPDGDWFCPACNAKA the abundance fitness was -0.242 ± 0.15.
For KSIMKVYCQICRKGDNEELLLLCDGCDKGCHTYCHRPKITTIPDGDWFCPACKAKA, the abundance fitness was -0.089 ± 0.14.
Variant KSIMKVYCQICRKGDNEELLLLCDGCDKGCHTYCHRPKITTIPDGDWFCPACWAKA has an abundance fitness of -0.179 ± 0.1.
Variant KSIMKVYCQICRKGDNEELLLLCDGCDKGCHTYCHRPKITTIPDGDWFCPACLAKA has an abundance fitness of 0.043 ± 0.088.
With KSIMKVYCQICRKGDNEELLLLCDGCDKGCHTYCHRPKITTIPDGDWFCPACVAKA the abundance fitness was -0.004 ± 0.07.
With KSIMKVYCQICRKGDNEELLLLCDGCDKGCHTYCHRPKITTIPDGDWFCPACHAKA the abundance fitness was -0.083 ± 0.15.
In the case of KSIMKVYCQICRKGDNEELLLLCDGCDKGCHTYCHRPKITTIPDGDWFCPLCIAKA, the abundance fitness is reported as -0.045 ± 0.086.
KSIMKVYCQICRKGDNEELLLLCDGCDKGCHTYCHRPKITTIPDGDWFCPDCIAKA showed an abundance fitness of 0.026 ± 0.12.
For KSIMKVYCQICRKGDNEELLLLCDGCDKGCHTYCHRPKITTIPDGDWFCPHCIAKA, the abundance fitness was -0.214 ± 0.16.
For KSIMKVYCQICRKGDNEELLLLCDGCDKGCHTYCHRPKITTIPDGDWFCPKCIAKA, the abundance fitness was -0.162 ± 0.13.
KSIMKVYCQICRKGDNEELLLLCDGCDKGCHTYCHRPKITTIPDGDWFCPNCIAKA gave an abundance fitness of -0.064 ± 0.17.
KSIMKVYCQICRKGDNEELLLLCDGCDKGCHTYCHRPKITTIPDGDWFCPRCIAKA showed an abundance fitness of -0.087 ± 0.069.
KSIMKVYCQICRKGDNEELLLLCDGCDKGCHTYCHRPKITTIPDGDWFCPMCIAKA gave an abundance fitness of 0.022 ± 0.11.
Work on KSIMKVYCQICRKGDNEELLLLCDGCDKGCHTYCHRPKITTIPDGDWFCPVCIAKA yielded an abundance fitness of -0.095 ± 0.094.
KSIMKVYCQICRKGDNEELLLLCDGCDKGCHTYCHRPKITTIPDGDWFCPGCIAKA showed an abundance fitness of 0.033 ± 0.069.
With KSIMKVYCQICRKGDNEELLLLCDGCDKGCHTYCHRPKITTIPDGDWFCPYCIAKA the abundance fitness was -0.346 ± 0.21.
With KSIMKVYCQICRKGDNEELLLLCDGCDKGCHTYCHRPKITTIPDGDWFCPICIAKA the abundance fitness was -0.14 ± 0.2.

Source: the Human Domainome abundance scans (Beltran et al. 2025)
